The target in experiment [1] is T1, Purified EGFR (R&D Systems, Minneapolis, Minn.) (Homo sapiens (Human), UniProt P00533 25-645).
T1 construct: Bought protein coated on an ELISA plate; also called immobilized EGFR; EGF receptors
Kind of experiment: EGF-EGFR binding assay. The protocol:
(§1) Purified EGFR (R&D Systems, Minneapolis, Minn.) was diluted in coating buffer (0.2 M sodium carbonate/bicarbonate pH 9.4, 0.5 1 g/mL) and immobilized on an ELISA plate by incubation at 4° C. overnight. […] The peroxidase reaction was stopped 30 min after the addition of 0.5 M H₂SO₄ ([…]/well), and the absorbance was measured at 450 nm with a multichannel microtiter plate reader.

For experiment [2], the target named is T1, Purified EGFR (R&D Systems, …). As to the kind of experiment: ELISA, EGFR on the plate, his6-tagged ligand 0-50 nM, HRP anti-his6 detection. Here is the method: as §1
Background: In an ELISA, binding on a coated surface is turned into a signal by an enzyme label.

B1: mGM-CSF-hEGF fusion protein of Example 1 (other)
chain: SPITVTRPWKHVEAIKEALNLLDDMPVTLNEEVEVVSNEFSFKKLTCVQTRLKIFEQGLRGNFTKLKGALNMTASYYQTYCPPTPETDCETQVTTYADFIDSLKTFLTDIPFECKKPGQKVPGVGVPGVGNSDSECPLSHDGYCLHDGVCMYIEALDKYACNCVVGYIGERCQYRDLKWWELRHHHHHH
notes: The assays call it his6-tagged; also called GM-CSF-EGF conjugate; GM-CSF-EGF fusion protein
As usually defined, the Kd is a measure of binding affinity in units of concentration. Lower therefore signals a tighter complex. Regarding B1, the Kd in experiment [1] was around 10 nM; in experiment [2], below 5 nM.

The values above are taken from US20200308241A1 (published 2020).
